According to the supplement of paper PMC9732359:
± gives the uncertainty stated by the source.

Test: protein stability index of a GFP-peptide fusion (yeast GPS) (PSI 1-4); higher = more stable; sorted into four equal gates, so the index is relative within each strain
Outline: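 Plasmids isolated from each sorting gate were PCR-amplified and Illumina-sequenced, and barcodes assigned the reads to strains. The gates, four of equal size, were set by GFP/Cherry fluorescence ratio on mid-log cultures in leucine-free medium. These cultures were yeast carrying a pooled library of tiled 17-residue yeast protein peptides fused downstream of GFP on a plasmid that also expresses Cherry. The protein stability index is the sum of every gate's read frequency times its gate number.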

Sequence	protein stability index (doa10∆)	protein stability index (pdr5∆)	protein stability index (san1∆)	protein stability index (ubr1∆)
PHTTLVNECIAQSHQRF [CDC53]	2.79 ± 0.066	2.92 ± 0.052	2.85 ± 0.055	2.98 ± 0.039
ALLRPGRLDRKVEIPLP [RPT4]	2.99 ± 0.28	–	–	–
IEPLEINIQSFKDVEHI [BRR2]	2.5 ± 0.069	2.31 ± 0.062	2.12 ± 0.074	2.67 ± 0.068
CINKWIKTRDACPLDNQ [HRT1]	3.16 ± 0.093	3.03 ± 0.079	2.72 ± 0.078	3.17 ± 0.05
TNELWARLAILKERAKN [YGR119C/NUP57]	3.26 ± 0.13	2.75 ± 0.2	–	3.58 ± 0.13
PPDSDSSISVMGENEKP [RPT3]	1.47 ± 0.16	1.22 ± 0.12	1.21 ± 0.15	1.77 ± 0.2
QKKRVVDPFTRKEWFDI [RPS1A]	2.77 ± 0.15	3.1 ± 0.18	3.03 ± 0.08	3.13 ± 0.13
NTTTRVIPQVEVGNRKH [SNF5]	2.21 ± 0.2	2.46 ± 0.095	2.35 ± 0.17	2.62 ± 0.094
VWFSHPRRYGKGSRQCR [RPS29A]	3.14 ± 0.16	3.24 ± 0.1	3.39 ± 0.067	3.31 ± 0.11
NPVALEQKLVDLLKFEN [BRR2]	2.94 ± 0.17	3.23 ± 0.11	2.3 ± 0.12	2.47 ± 0.12
KNDSAEVRQETQPKAEA [NUT1]	3.35 ± 0.15	3.26 ± 0.11	3.36 ± 0.055	3.38 ± 0.083
KYPMYMQLEEELMKLDG [MED6]	2.14 ± 0.091	1.44 ± 0.084	1.39 ± 0.16	1.36 ± 0.06
IDSINGPDTKGQLEDFD [SMC3]	3.47 ± 0.14	3.29 ± 0.11	3.18 ± 0.24	3.31 ± 0.1
LLLITHHSWSQSDLEII [ARP9]	2.36 ± 0.08	1.68 ± 0.048	1.76 ± 0.075	1.87 ± 0.068
DLKSLNVRDDMKPSDNI [SSN2]	2.94 ± 0.22	2.59 ± 0.18	2.62 ± 0.16	2.57 ± 0.097
SQWNDSSIDKIEDRDFL [SIR3]	2.99 ± 0.17	3.21 ± 0.27	3.23 ± 0.28	3.32 ± 0.15
QQLNKQRQDFERVRLRP [SNF6]	2.85 ± 0.062	2.73 ± 0.079	2.75 ± 0.069	2.79 ± 0.045
LTSFAEENNYQYGYSGS [SNF6]	2.08 ± 0.064	2.22 ± 0.093	2.74 ± 0.11	2.48 ± 0.066
KAKNPLTHSTPKNFGIG [RPL8B]	3.31 ± 0.13	3.35 ± 0.12	3.14 ± 0.074	3.08 ± 0.05
AKINEVYNNSKDEYLAQ [NSL1]	2.83 ± 0.047	3.06 ± 0.043	2.77 ± 0.048	2.75 ± 0.037
KEVLPDLQNLNLNTDKL [YJL039C/NUP192]	3.38 ± 0.1	2.94 ± 0.098	3.25 ± 0.097	2.64 ± 0.085
EDDNNNVEKPSSKPAFN [YLR335W/NUP2]	3.12 ± 0.061	3.2 ± 0.071	3.14 ± 0.049	3.2 ± 0.063
NTMSAWVNMLLISSSGP [FAS2]	1.99 ± 0.07	1.32 ± 0.051	1.37 ± 0.1	1.52 ± 0.043
LPRKEVDDVLGGGWDNV [RPC11]	3.17 ± 0.1	3.63 ± 0.14	3.26 ± 0.066	3.32 ± 0.099
LLSKIMLNLIDDVKNIL [RPN6]	2.2 ± 0.13	1.4 ± 0.1	1.25 ± 0.13	1.22 ± 0.08
DLIKFSAETLSELIRTT [FAS1]	2.1 ± 0.076	2.29 ± 0.059	2.1 ± 0.081	2.12 ± 0.073
LKKLQSDIESANNQEYD [SMC1]	3.19 ± 0.076	3.2 ± 0.097	3.16 ± 0.062	3.13 ± 0.076

Sequence	protein stability index (doa10∆)	protein stability index (pdr5∆)	protein stability index (san1∆)	protein stability index (ubr1∆)
FGHIDLAKPVFHVGFIA [RPO21]	2.37 ± 0.072	2.7 ± 0.085	2.73 ± 0.052	2.63 ± 0.06
PSYYGVRDTSPHGISVF [BRR2]	1.35 ± 0.069	1.41 ± 0.057	2.29 ± 0.077	1.94 ± 0.045
VSGNNASDEPSRKKNRR [SSN3]	2.67 ± 0.1	3.01 ± 0.11	2.78 ± 0.14	2.91 ± 0.096
TIQSDLNLSLHKLDLAK [SMC2]	2.81 ± 0.049	2.79 ± 0.035	3.01 ± 0.038	2.828 ± 0.028
FDDACNQIWNIALNLAS [SSN2]	3.01 ± 0.15	2.88 ± 0.078	2.91 ± 0.2	2.62 ± 0.14
VIQIVTGIFMAMHYSSN [COB]	1.32 ± 0.078	1.16 ± 0.069	1.33 ± 0.17	1.46 ± 0.088
LNQINGLNNDFLFQNIN [GRR1]	1.6 ± 0.1	2.13 ± 0.088	2.01 ± 0.11	1.8 ± 0.086
ASLQQQQQQDLQQQQQV [SNF6]	2.66 ± 0.26	2.7 ± 0.17	–	2.69 ± 0.21
ALLTVLKALSHHYNPKT [BRR2]	2.28 ± 0.07	2.25 ± 0.051	1.91 ± 0.081	2.41 ± 0.062
SKSESDSQIVTPGELVT [RRP4]	3.07 ± 0.11	3.17 ± 0.066	2.88 ± 0.077	2.83 ± 0.066
DIFAVNLEESSKLDIYT [RET1]	2.98 ± 0.097	2.78 ± 0.081	2.72 ± 0.087	3 ± 0.08
LDQVGVPKSIAKTLTYP [RPO21]	2.74 ± 0.064	2.83 ± 0.051	2.65 ± 0.043	2.99 ± 0.06
HANSVVALTGLLIRSKT [YML031W/NDC1]	1.86 ± 0.04	2.18 ± 0.046	1.83 ± 0.052	2.35 ± 0.033
SCAIHARIVRVRSREDR [RPS26A]	2.41 ± 0.14	1.39 ± 0.11	1.4 ± 0.18	2.62 ± 0.089
MAQNKTHIPQTNLKNHP [YLR018C/POM34]	3.12 ± 0.082	2.98 ± 0.057	2.75 ± 0.058	2.85 ± 0.04
GSSALADNKEDVKKPFS [YLR335W/NUP2]	3.48 ± 0.099	3.16 ± 0.067	3.06 ± 0.06	3.21 ± 0.062
SKNLGEINTALNTLLVT [SWI1]	1.23 ± 0.077	1.79 ± 0.054	1.57 ± 0.11	1.46 ± 0.066
AEFKKRKIEAETRNGKV [YCS4]	2.82 ± 0.1	3.18 ± 0.072	3.18 ± 0.1	3.13 ± 0.094
AFAGSKNDEVLGLLLPI [RPN1]	–	3.2 ± 0.14	3.05 ± 0.17	3.19 ± 0.13
VILKQILQILDQDELVQ [SWP82]	2.54 ± 0.051	2.52 ± 0.082	2.57 ± 0.063	2.5 ± 0.06
LPEILNVLCVNIKSNDF [ECM29]	1.56 ± 0.046	1.58 ± 0.047	1.37 ± 0.088	1.58 ± 0.035
AELQSNLQVELLSEHDD [YGL100W/SEH1]	2.61 ± 0.083	2.95 ± 0.065	2.62 ± 0.07	2.87 ± 0.061
ENELVITSIPKPLTENC [RMP1]	3.42 ± 0.14	3.4 ± 0.11	3.39 ± 0.066	3.1 ± 0.07
KTEDPKGGIIASVGDIL [YML031W/NDC1]	2.57 ± 0.067	2.62 ± 0.051	2.43 ± 0.046	2.12 ± 0.04
KKLSINSAARNIQHLLY [PRE7]	2.68 ± 0.051	2.88 ± 0.062	2.81 ± 0.044	2.8 ± 0.056
NIDQEGSKQADRMAKYL [PGD1]	3.4 ± 0.094	3.35 ± 0.13	2.97 ± 0.087	3.17 ± 0.15
